Results: patent US20120315703A1

Biological target: Lrh-1 (liver receptor homolog 1, Nr5a2) (mouse) (UniProt P45448)
Test: cell-based or functional assay

UniProt P45448, sequence (P45448 whole entry): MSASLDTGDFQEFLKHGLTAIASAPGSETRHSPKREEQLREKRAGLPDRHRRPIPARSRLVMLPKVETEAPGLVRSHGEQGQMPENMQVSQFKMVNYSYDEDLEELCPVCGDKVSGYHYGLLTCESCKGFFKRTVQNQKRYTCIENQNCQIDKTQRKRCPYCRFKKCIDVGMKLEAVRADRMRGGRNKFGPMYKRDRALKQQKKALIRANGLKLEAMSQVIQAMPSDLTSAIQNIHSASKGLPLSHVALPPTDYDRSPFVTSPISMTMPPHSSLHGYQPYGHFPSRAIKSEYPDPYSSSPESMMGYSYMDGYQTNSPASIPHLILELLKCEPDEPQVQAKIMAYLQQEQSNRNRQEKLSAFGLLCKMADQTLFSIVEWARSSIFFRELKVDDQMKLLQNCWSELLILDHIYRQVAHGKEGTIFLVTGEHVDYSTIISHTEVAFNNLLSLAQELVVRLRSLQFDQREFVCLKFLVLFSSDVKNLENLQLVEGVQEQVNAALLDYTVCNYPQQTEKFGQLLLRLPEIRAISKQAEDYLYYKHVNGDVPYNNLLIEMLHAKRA

luciferase reporter expression (luciferase cassette linked to the Oct4 promoter), fold increase on co-expression: 4 to 5 fold
Substance: Rarg (retinoic acid receptor gamma), full-length (from UniProt P18911 1-458)
